Experimental findings from the RNAGym collection of RNA variant scans (doi:10.7554/elife.80360) are described below.

B1: HDV Ribozyme (parent)
chain: GGCCGGCAUGGUCCCAGCCUCCUCGCUGGCGCCGGCUGGGCAACAUUCCGAGGGGACCGUCCCCUCGGUAAUGGCGAAUGGGACCCA

In this data set the parent is B1. Description: self-cleavage, relative activity (ratio to wild type); higher = more cleavage; co-transcriptional.
As for G55A G67U, the self-cleavage turned out to be 1.12.

For the variant G55A G67C, the self-cleavage amounted to 0.942. As to C57A G68A, the self-cleavage was 0.819. For C57A G68U the value was 1.14; for G55U U60A, 0.886; for A56G C84U, 0.973. To A56G C84A belongs 1.16. As to C57G G68U, the self-cleavage is 1.01. Regarding C57G G68C, the self-cleavage worked out at 0.831. Regarding A56C G74U, the self-cleavage worked out at 0.708. For the variant A56C G74A, the self-cleavage amounted to 0.65.

Regarding A56C U79A, the self-cleavage came out at 0.554. To A56C U79G belongs 0.997.

Consider A56C G81U, for which the self-cleavage came to 0.277. For the variant A56U G67U, the self-cleavage is 0.988. For G55U G68C the value was 0.744. Take G55U G68U: the self-cleavage is 1. For the variant C57G A77G, the self-cleavage turned out to be 1.05. As for C57G A77U, the self-cleavage came to 0.923. In the case of A56G G67C, the self-cleavage is 1.05. For the variant C57A C63U, the self-cleavage is 1.12. For C57A C63G, the self-cleavage was 0.945. As for C57A C63A, the self-cleavage was found to be 1.25. On to G55A U60A, for which the self-cleavage stood at 0.99.

For the variant G55A U60G, the self-cleavage turned out to be 0.798. For G55U C57A the value was 1.12. For G55U C57U the value was 1.11; for A56G G74A, 0.45. G55U C64U: the self-cleavage turned out to be 1.05.

As to G55U C66A, the self-cleavage stood at 0.986.

In the case of G55U C66U, the self-cleavage amounted to 0.973. In the case of G55U U69G, the self-cleavage was 0.933. With G55U U69C, the self-cleavage worked out at 1. For G55U U69A the value was 0.869; for C57A C61U, 1.14; for C57A A77G, 1.17.

For the variant A56G C62G, the self-cleavage amounted to 0.731. With A56G C62A, the self-cleavage came to 0.467. Turning to A56G C62U, the self-cleavage turned out to be 0.912.

Regarding A56C A71G, the self-cleavage was determined as 0.98.

Consider G55C G81A, for which the self-cleavage is 0.496.

Regarding G55C G81C, the self-cleavage turned out to be 0.141.

Consider A56G A77G, for which the self-cleavage was 1.11.

For G55C A71C, the self-cleavage came out at 0.903. Turning to G55C A71U, the self-cleavage is 0.872. To C57G C85G belongs 1.09; to C57G C85A, 0.935. G55U C75U: the self-cleavage amounted to 0.168. To G55U C75G belongs 0.0707; to A56G C64A, 0.764; to A56G C64U, 0.563.

As to A56C C61G, the self-cleavage stood at 1.05. Turning to C57G A87G, the self-cleavage was 0.86.

C57G A87C: the self-cleavage was determined as 0.98. To A56U A71C belongs 0.966. For G55C C63U, the self-cleavage stood at 0.808.

As to G55A C57G, the self-cleavage amounted to 1.07. For the variant G55A C57A, the self-cleavage was found to be 0.927. Regarding G55A U72A, the self-cleavage worked out at 0.917. For G55A G80A the value was 0.369; for G55A G80C, 0.138. For G55A C75A, the self-cleavage was found to be 0.254. On to C57G C66G, for which the self-cleavage worked out at 1.08. As for C57A G81A, the self-cleavage was 0.339. Take C57A G81U: the self-cleavage was found to be 0.397. As to C57A G81C, the self-cleavage turned out to be 0.181. As to A56G G68A, the self-cleavage amounted to 0.96. Regarding C57A C75A, the self-cleavage was determined as 0.277. Consider C57A C75U, for which the self-cleavage was determined as 0.0978.

G55C G76C: the self-cleavage came out at 0.943. For C57A G74A the value was 0.597. Consider A56C A78U, for which the self-cleavage came to 0.499. On to A56C A78C, for which the self-cleavage came to 0.111. A56G G76A: the self-cleavage was determined as 0.96. Consider C57A U65C, for which the self-cleavage was found to be 0.762. As for C57A U65G, the self-cleavage turned out to be 1.04.

On to A56U A87C, for which the self-cleavage was determined as 0.963. Take A56U A87U: the self-cleavage was 1.08. In the case of G55C C86A, the self-cleavage came out at 1.03. To A56C U65C belongs 1.33; to G55U A87U, 1.1; to C57G A71U, 0.91. Take C57G A71G: the self-cleavage is 1.08. On to A56G G81A, for which the self-cleavage came out at 0.665. To A56G G81C belongs 0.198. G55U C62G: the self-cleavage amounted to 0.793. For C57G C75G the value was 0.185; for C57G C75U, 0.271. To C57G C75A belongs 0.287; to C57A C86U, 1.06. Regarding C57A C86A, the self-cleavage came out at 0.986. To C57A C64G belongs 0.658. Regarding C57A C64A, the self-cleavage was 0.857. Consider A56G U72G, for which the self-cleavage was 0.677. For A56U C85A the value was 0.966; for A56U C85G, 0.982.

As for G55U G59A, the self-cleavage was found to be 1.14. For the variant A56C U69A, the self-cleavage came to 0.776. Turning to A56C U69C, the self-cleavage was determined as 1.09. As for A56C U69G, the self-cleavage was found to be 0.987.

Regarding A56G G82U, the self-cleavage came to 0.244. For the variant A56G G82A, the self-cleavage worked out at 0.277. On to A56C U72C, for which the self-cleavage came out at 0.539. Consider A56G A70U, for which the self-cleavage was 1.1.

Consider C57A G67C, for which the self-cleavage came to 1.05. As to C57G C84U, the self-cleavage was 0.721. In the case of C57G C84A, the self-cleavage stood at 0.933. Consider G55A C86A, for which the self-cleavage was 0.978. As to G55A C86G, the self-cleavage was found to be 0.818. Turning to C57G U69G, the self-cleavage was 1.2. For C57G U69C the value was 1.06; for C57G U69A, 0.767; for C57A A83G, 0.688. Take G55U G73U: the self-cleavage was 0.295.

G55U G73C: the self-cleavage was determined as 0.499. Consider C57A U72G, for which the self-cleavage worked out at 0.635. A56G C85G: the self-cleavage is 0.831. On to A56G C85U, for which the self-cleavage was found to be 1.02. For A56G C85A the value was 0.95; for C57A A78U, 0.108; for C57A A78C, 0.0437. Take G55U C58U: the self-cleavage came to 1.05. A56C C57U: the self-cleavage came out at 1.08.

For G55C A83G, the self-cleavage is 0.767. To A56C C84U belongs 0.718; to A56C C84A, 0.95; to C57G A78U, 0.441. As for A56C C75U, the self-cleavage was 0.0723. To A56C C75A belongs 0.116; to A56C C75G, 0.115; to A56U C62A, 1.05. For A56U C62U the value was 0.847; for A56C C62G, 0.458. Regarding A56C C62U, the self-cleavage came out at 1.02. With A56U C86U, the self-cleavage came out at 0.906. On to A56U C86A, for which the self-cleavage was 1.01. For A56U C86G the value was 1.19; for C57G C62G, 0.87. To C57G C62U belongs 1.03; to A56G A71C, 0.534; to G55U G82U, 0.426.

Consider G55U G82C, for which the self-cleavage turned out to be 0.233.

Regarding A56U G68A, the self-cleavage came to 0.819. Consider A56U G68U, for which the self-cleavage amounted to 1.01. In the case of A56U A70U, the self-cleavage was 1.09.

Take G55A G81C: the self-cleavage is 0.312.

For the variant G55U G76U, the self-cleavage was determined as 0.993.

In the case of G55U G76A, the self-cleavage stood at 1.17.

For G55U G76C, the self-cleavage was determined as 1.08. As to A56C A83C, the self-cleavage stood at 0.494. For A56C A83U, the self-cleavage worked out at 0.192. For C57A G59C the value was 0.923; for C57A G59U, 1.11; for C57A G59A, 1.04. As for G55C G67U, the self-cleavage is 0.967. With G55C G67C, the self-cleavage amounted to 1.06. Take G55U A83U: the self-cleavage worked out at 0.409. With G55U A83G, the self-cleavage was found to be 0.842.

For G55A C66A, the self-cleavage is 1.07.

On to G55A C66U, for which the self-cleavage came to 1.11. Take C57G G82C: the self-cleavage is 0.306.

Turning to C57G G82U, the self-cleavage came out at 0.317. Consider G55U U79C, for which the self-cleavage was 0.395. As to A56C A87C, the self-cleavage was 1.04. For A56U G59C the value was 1.01. In the case of G55C C66A, the self-cleavage was determined as 0.87.

As for G55A G73A, the self-cleavage was 0.812.
